Here are results for one molecule from article PMC8437434, “Hsp40s play complementary roles in the prevention of tau amyloid formation” (eLife, 2021).

This experiment addresses T1, full-length tau (2N4R), C322S (UniProt P10636-8 1-441, C322S).
T1 construct: microtubule-associated protein tau, longest splice isoform 2N4R, with C322S; 15N-labelled for NMR; also called 15N-tau; source: E. coli BL21 (DE3), purified (Ni-NTA, tag cleaved, Superdex 75); not shown: His6, N-terminal, cleaved
In words: NMR titration; 1H-15N HSQC-TROSY of 200 µM 15N-tau, tau^4R or tau^4R P301S/P301L alone and with twofold excess (400 µM) of chaperone; intensity ratios I/I0; 50 mM HEPES pH 7.0, 50 mM KCl, 1 mM DTT, 25 °C; no heparin. Conditions: both partners purified.

T1 sequence (P10636 other isoform, or with tags, fused parts or gaps C322S | C322S | C322S C322S): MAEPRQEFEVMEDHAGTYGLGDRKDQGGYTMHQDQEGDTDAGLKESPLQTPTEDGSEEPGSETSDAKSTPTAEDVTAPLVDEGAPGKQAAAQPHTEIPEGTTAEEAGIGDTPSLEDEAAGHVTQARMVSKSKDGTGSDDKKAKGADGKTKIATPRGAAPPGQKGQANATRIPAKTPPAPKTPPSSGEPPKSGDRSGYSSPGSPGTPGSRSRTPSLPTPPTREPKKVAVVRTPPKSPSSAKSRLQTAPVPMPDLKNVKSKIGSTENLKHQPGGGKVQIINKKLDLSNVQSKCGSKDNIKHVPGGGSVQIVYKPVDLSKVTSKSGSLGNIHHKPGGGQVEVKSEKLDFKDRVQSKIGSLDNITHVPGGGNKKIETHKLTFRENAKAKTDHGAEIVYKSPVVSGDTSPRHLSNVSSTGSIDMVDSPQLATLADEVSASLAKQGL

B1: DNAJA2 (natural protein)
chain: not shown
notes: DNAJA2, class A J-domain protein; homodimer (90 kDa dimer as printed); also called class A JDP; Hsp40; source: E. coli BL21 (DE3), purified (Ni-NTA, tag cleaved, Superdex 200); not shown: His6, N-terminal, cleaved
B1: the binding result was “binds”.
